# According to the DeepSol protein solubility set:
# Experiment: soluble on expression in E. coli; label from the status in PepcDB or PDB records
row,Sequence,soluble on expression in E. coli
1,VKKNGLGEIKSIYIDDNVSGSGFERRGIYELKRDVMEGKINLLVLKDLSRLGRNNAKTLLFLDFLEENGVRVVTFDGRYDSLKDNDIVGIETWFNERYILDISRKIRANLRFKIQKGEYIGHAPFGYEKSPYEKNRLIVNEEEAGIVRRIYSLYKEGYGYSYIAGILNSEGVKSPSNGRWNPTAIRRILLNRVYTGDTVQGVSEKISFKSKKTRRLPKERWVITENTHEPIVSKEEYEEIQRIRNNKNARPVPHKGIIHVFRGSIFCGGCGSVMFARKRHNRPMSYICSSYAKEGRTACTSHSIREKDLCEVVLDDVAKLLDDENMVNKILQKIDLAGAAEDYQTLREKLLKQMEAKQKQQEILYQDRLENKISESLFLRMNNRLENRISEIKREIAQLDLRKSEFVTSEEKIAKLKNYITNNGITNEIVKIVINRIIVFDKGDNYLEEKWNLNLSQKEKRYIELYGAVLIEYGF,soluble
2,VLEQAVYNARVMDIRDIEKESQEQAPEVEMVSELGSDVVVLDIRSAEEEDEKPLELDGVEVTHIPFFKLATKFGDLDQSKEYLLYCERGVMSRLQALLLIENGYKNVKVYRP,not soluble
3,VLIAGYLTDWRIMTTAQLRPIAPQKLHFSENLSVWVSDAQCRLVVSQPALDPTLWNTYLQGALRAYSKHGVECTLDLDAISDGSDTQLFFAAIDIGGDVVGGARVIGPLRSADDSHAVVEWAGNPGLSAVRKMINDRAPFGVVEVKSGWVNSDAQRSDAIAAALARALPLSMSLLGVQFVMGTAAAHALDRWRSSGGVIAARIPAAAYPDERYRTKMIWWDRRTLANHAEPKQLSRMLVESRKLLRDVEALSATTAATAGAEQ,not soluble
4,VPITPLLHESVARFAATGADITTRAEPDLFVSIDPDHLRRILTAVLDNAITHGDGEIAVTAHARDGAVDIGVRDHGPGFADHFLPVAFDRFTRADTARGGRGSGLGLAIVAALTTTHGGHANATNHPDGGAELRITLPTPRPPFHEELPRITSSDTKDPNREHDTSDQ,not soluble
5,VRAPGVRAADGAGRVVLYLHGGAFVMCGPNSHSRIVNALSGFAESPVLIVDYRLIPKHSLGMALDDCHDAYQWLRARGYRPEQIVLAGDSAGGYLALALAQRLQCDDEKPAAIVAISPLLQLAKGPKQDHPNIGTDAMFPARAFDALAAWVRAAAAKNMVDGRPEDLYEPLDHIESSLPPTLIHVSGSEVLLHDAQLGAGKLAAAGVCAEVRVWPGQAHLFQLATPLVPEATRSLRQIGQFIRDATADSSLSPVHRSRYVAGSPRAASRGAFGQSPI,not soluble
6,VRILATVAATAAAVAALITPAHADGPLGVKGDTLTLPLADAITALPVAEESRAGYQRSAFKHWVDADKDGCNTRSEVLKAEAVVAPEQGTRCKLSGGQWYSAYSNTYVNSASALDLDHLVPLAEGWDSGASAWTAKEREAYANDLGDDRSLIAVTAATNRSKADQDPAEWLPPYEPYHCQYLTDWIATKLRWQLTVDQAERDTLTQATTSCPNLPVEVTLAR,soluble
7,VSRDENSWLIDGATPLEEVTRVLDIAYFPDEENYETISGFMMYMLRKIPKKTDSVVYGKYKFEVIDTENFKIDQILVSLVKEQE,not soluble
8,VTNSTDGRADGRLRVVVLGSTGSIGTQALQVIADNPDRFEVVGLAAGGAHLDTLLRQRAQTGVTNIAVADEHAAQRVGDIPYHGSDAATRLVEQTEADVVLNALVGALGLRPTLAALKTGARLALANKESLVAGGSLVLRAARPGQIVPVDSEHSALAQCLRGGTPDEVAKLVLTASGGPFRGWSAADLEHVTPEQAGAHPTWSMGPMNTLNSASLVNKGLEVIETHLLFGIPYDRIDVVVHPQSIIHSMVTFIDGSTIAQASPPDMKLPISLALGWPRRVSGAAAACDFHTASSWEFEPLDTDVFPAVELARQAGVAGGCMTAVYNAANEEAAAAFLAGRIGFPAIVGIIADVLHAADQWAVEPATVDDVLDAQRWARERAQRAVSGMASVAIASTAKPGAAGRHASTLERS,soluble
9,VTPQYQATSTIYVLGNSVSMSGVDLTLSKQLTADFSVLAKSRPVMNKIEEKLKADYKYKDLNYSVEQLQGMITIENPSGTSLMRMTATNSDAQLAADIANAAADAVAERISEVMVIDKPSSVEEAEKPNYPVSPNVKKNM,not soluble
10,VTRPRPPLGPAMAGAVDLSGIKQRAQQNAAASTDADRALSTPSGVTEITEANFEDEVIVRSDEVPVVVLLWSPRSEVCVDLLDTLSGLAAAAKGKWSLASVNVDVAPRVAQIFGVQAVPTVVALAAGQPISSFQGLQPADQLSRWVDSLLSATAGKLKGAASSEESTEVDPAVAQARQQLEDGDFVAARKSYQAILDANPGSVEAKAAIRQIEFLIRATAQRPDAVSVADSLSDDIDAAFAAADVQVLNQDVSAAFERLIALVRRTSGEERTRVRTRLIELFELFDPADPEVVAGRRNLANALY,not soluble
11,VTTRDLTAAQFNETIQSSDMVLVDYWASWCGPCRAFAPTFAESSEKHPDVVHAKVDTEAERELAAAAQIRSIPTIMAFKNGKLLFNQAGALPPAALESLVQQLKAYEVEAGEATTQNGRAQQA,soluble
12,VTYEEEAVPAPVRGRLEVLSDLLYVASPDRAMVFTRTKAETEEIAQGLLRLGHPAQALHGDMSQGERERVMGAFRQGEVRVLVATDVAARGLDIPQVDLVVHYRMPDRAEAYQHRSGRTGRAGRGGRVVLLYGPRERRDVEALERAVGRRFKRVNPPTPEEVLEAKWRHLLARLARVPEKDYRLYQDFAGRLFAEGRVEVVAALLALLLGGAPAERSLLTGEEGWRTYKATGPRLSLPRLVALLKGQGLEVGKVAEAEGGFYVDLRPEARPEVAGLRLEPARRVEGLLEIPSRTRRPARA,soluble
13,VVSIVDTLMFDTGRAEVKPDFQKKLVEIGEILKTIDNYIRIEGHTDNTPISNSQYASNIELGSARSNNVEHLFIDVSKIPVTQMYTVSYADTRPVADNNSEAGKARNRRVDIVILNSKFNAVEQESSGK,not soluble
14,VWVSENIERLIGYTPGEALAPGWWLSHLYPDDREQVLERQPILLSDGQLTHDYRFYHRDGRIIWILDELRLIRNADGQPHEVVGTWLDIS,not soluble
15,WAALHEGLNIRQAEVHGMSQRGGAVQSHLRISDQELFADLIGLGTGDLILSVEPLEALRYLPYLAPDGRIVTSLDPFVNMTGYPPMEEIEAELGKTGRPVLVHAADLAKDAGSARASNMVMLGAGAPFAGIAPSKLEASIEALFSTKGQEVVDINIRAFRKGLQL,not soluble
16,WAIFVEQSDGHYRVRLRSKSHIINEIAKRHNGGGHPLASGANSYSLEENQAIYQ,soluble
17,WCAETAPEPQVEPEPEVLPEPDRGSATPAELGINSLDIVRLANRIEDATGTRPSLATLLNQPWQESLAMVEVLEPRPALASEQKPELVPDRDREVIDVVGAGMALGARIRAEVPISEEPVEDQFVQVGQWLKQLRAVVEPAGCMQVTPPSGNILCAIDITPGEKADVSDHAPLTPLQLGYLVGRADTWLGEPVAPHYYTEVEVADLDVVALQRALDEVVRAHPALMLGVHDDGNQGLSEALRPRLVVTDLRDHPDPDGELERIRAVGCAGVSDPLGTAWFQLRATLLPTAVR,not soluble
18,YGHNELPAEEGKSLWELVIEQFEDLLVRILLLAACISFVLAW,soluble
19,YHLSLKQVNRLFDDDMVDFGEAALRLLDLATEDQAGEDGSITEIIERSREAIQGLPLLRRESALGYALWRDGQPLLSSLNLPPEITAQGPGFSTVEAQGTHWRVLQLNIDGFQIWISENLIYRQHTMNLL,not soluble
20,YLYLEITNRCNLKCEMCFKQYWEDKEGDMDWDLFLKILDDAKEFPELKMIYFGGIGEPSVHPRFMDMVREVKRRGFRLGMSTNGVLLEDKILEEFVKLGVDVVYFSMDAIPTPSNIVTLGHITSKVVESRIKKLVELKKRYKTEKPTIGVEVVATKENYKQLPEMAIYLRNLGVDSMLISNLIPMTKEH,not soluble
21,YQPNYFLSIPITNKKITAGIKVLQNSILRQDNRLTKAMVGDGSFHITLLVMQLLNEDEVNIGTDALLELKPFVEEILEGKHLTLPFHGIGTFQGQVGFVKLADGDHVSALLEIAETAKRTFQEKGILAGESRTFKPHLTFMKLSKAPMLWKKGVRKIEPGLYEQFIDHRFGEEILYQIDLCSMLKKKQSNGYYHCESSIVIGEKD,soluble
22,YRALFEHAIDGIFIMDAEGHYLDVNPAICSAIGYTRDEFLALDWGVLSRGVDSGWAAASLARIVGGEPLREERTVWTRNGDQLTVELSAHLLPDGKILGIARDVS,soluble
